Data taken from patent US20200262877A1, “ION CHANNEL-BINDING PEPTIDES AND METHODS OF USE THEREOF” (priority 2017, published 2020).

Columns and labels:
[1] = target: T1, 5HT3a (Homo sapiens, UniProt P46098); test: Ion channel panel (IonWorks Barracuda): 5HT3a; format: cell-based
T1 construct: host or cells: HEK293 or CHO
T1 sequence (P46098 whole entry, looked up): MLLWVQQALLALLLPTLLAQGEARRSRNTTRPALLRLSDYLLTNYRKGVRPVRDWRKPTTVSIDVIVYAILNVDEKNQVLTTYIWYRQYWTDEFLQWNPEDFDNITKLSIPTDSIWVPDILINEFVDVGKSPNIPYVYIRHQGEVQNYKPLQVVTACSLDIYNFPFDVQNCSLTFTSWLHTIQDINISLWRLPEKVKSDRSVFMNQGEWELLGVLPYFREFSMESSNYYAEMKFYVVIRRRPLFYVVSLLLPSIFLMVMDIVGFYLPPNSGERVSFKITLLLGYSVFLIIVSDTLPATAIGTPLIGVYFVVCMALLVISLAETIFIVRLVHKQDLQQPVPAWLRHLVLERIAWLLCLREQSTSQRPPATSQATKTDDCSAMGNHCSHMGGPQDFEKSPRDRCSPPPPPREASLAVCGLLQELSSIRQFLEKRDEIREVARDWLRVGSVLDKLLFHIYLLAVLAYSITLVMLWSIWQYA
Method in brief: (§1)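 Transfected HEK293 or CHO cells were exposed for at least 5 min to peptides at 200 nM and 20 μM final, tested in duplicate, in HEPES-buffered physiological saline. Activation was taken as peptide-plus-agonist current over control current ×100, and inhibition as 1 minus that ratio ×100. Each channel's control was its own reference compound.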

[2] = target: T2, α3β4 (Homo sapiens, UniProt P30926+P32297); test: Ion channel panel (IonWorks Barracuda): α3β4; format: cell-based; settings: 100% = no change, <100% = inhibition
T2 construct: host or cells: HEK293 or CHO
Method in brief: as §1

[3] = target: T3, α4β2 (Homo sapiens, UniProt P17787+P43681); test: Ion channel panel (IonWorks Barracuda): α4β2; format: cell-based; settings: 100% = no change, <100% = inhibition
T3 construct: host or cells: HEK293 or CHO
Method in brief: as §1

[4] = target: T4, Cav2.1 (Homo sapiens, UniProt O00555); test: cell-based; settings: 100% = no change, <100% = inhibition
T4 construct: host or cells: HEK293 or CHO
Method in brief: as §1

[5] = target: T5, Cav2.2 (Homo sapiens, UniProt Q00975); test: cell-based; settings: 100% = no change, <100% = inhibition
T5 construct: host or cells: HEK293 or CHO
Method in brief: as §1

[6] = target: T6, Kv2.1 (Homo sapiens, UniProt Q14721); test: cell-based; settings: 100% = no change, <100% = inhibition
T6 construct: host or cells: HEK293 or CHO
Method in brief: as §1

[7] = test system: GABA; test: Ion channel panel (IonWorks Barracuda): GABA; format: cell-based; settings: 100% = no change, <100% = inhibition
Method in brief: as §1

[8] = target: Nav1.5 (Homo sapiens, UniProt Q14524); test: in vitro; settings: 100% = no change; for Activity of Nav1.5 with peptide, expressed as a percentage of the reference compound: peptide at 0.2 μM; for Activity of Nav1.5 with peptide (percentage of the reference compound): peptide at 20 μM
Chain of Nav1.5 (Q14524 whole entry): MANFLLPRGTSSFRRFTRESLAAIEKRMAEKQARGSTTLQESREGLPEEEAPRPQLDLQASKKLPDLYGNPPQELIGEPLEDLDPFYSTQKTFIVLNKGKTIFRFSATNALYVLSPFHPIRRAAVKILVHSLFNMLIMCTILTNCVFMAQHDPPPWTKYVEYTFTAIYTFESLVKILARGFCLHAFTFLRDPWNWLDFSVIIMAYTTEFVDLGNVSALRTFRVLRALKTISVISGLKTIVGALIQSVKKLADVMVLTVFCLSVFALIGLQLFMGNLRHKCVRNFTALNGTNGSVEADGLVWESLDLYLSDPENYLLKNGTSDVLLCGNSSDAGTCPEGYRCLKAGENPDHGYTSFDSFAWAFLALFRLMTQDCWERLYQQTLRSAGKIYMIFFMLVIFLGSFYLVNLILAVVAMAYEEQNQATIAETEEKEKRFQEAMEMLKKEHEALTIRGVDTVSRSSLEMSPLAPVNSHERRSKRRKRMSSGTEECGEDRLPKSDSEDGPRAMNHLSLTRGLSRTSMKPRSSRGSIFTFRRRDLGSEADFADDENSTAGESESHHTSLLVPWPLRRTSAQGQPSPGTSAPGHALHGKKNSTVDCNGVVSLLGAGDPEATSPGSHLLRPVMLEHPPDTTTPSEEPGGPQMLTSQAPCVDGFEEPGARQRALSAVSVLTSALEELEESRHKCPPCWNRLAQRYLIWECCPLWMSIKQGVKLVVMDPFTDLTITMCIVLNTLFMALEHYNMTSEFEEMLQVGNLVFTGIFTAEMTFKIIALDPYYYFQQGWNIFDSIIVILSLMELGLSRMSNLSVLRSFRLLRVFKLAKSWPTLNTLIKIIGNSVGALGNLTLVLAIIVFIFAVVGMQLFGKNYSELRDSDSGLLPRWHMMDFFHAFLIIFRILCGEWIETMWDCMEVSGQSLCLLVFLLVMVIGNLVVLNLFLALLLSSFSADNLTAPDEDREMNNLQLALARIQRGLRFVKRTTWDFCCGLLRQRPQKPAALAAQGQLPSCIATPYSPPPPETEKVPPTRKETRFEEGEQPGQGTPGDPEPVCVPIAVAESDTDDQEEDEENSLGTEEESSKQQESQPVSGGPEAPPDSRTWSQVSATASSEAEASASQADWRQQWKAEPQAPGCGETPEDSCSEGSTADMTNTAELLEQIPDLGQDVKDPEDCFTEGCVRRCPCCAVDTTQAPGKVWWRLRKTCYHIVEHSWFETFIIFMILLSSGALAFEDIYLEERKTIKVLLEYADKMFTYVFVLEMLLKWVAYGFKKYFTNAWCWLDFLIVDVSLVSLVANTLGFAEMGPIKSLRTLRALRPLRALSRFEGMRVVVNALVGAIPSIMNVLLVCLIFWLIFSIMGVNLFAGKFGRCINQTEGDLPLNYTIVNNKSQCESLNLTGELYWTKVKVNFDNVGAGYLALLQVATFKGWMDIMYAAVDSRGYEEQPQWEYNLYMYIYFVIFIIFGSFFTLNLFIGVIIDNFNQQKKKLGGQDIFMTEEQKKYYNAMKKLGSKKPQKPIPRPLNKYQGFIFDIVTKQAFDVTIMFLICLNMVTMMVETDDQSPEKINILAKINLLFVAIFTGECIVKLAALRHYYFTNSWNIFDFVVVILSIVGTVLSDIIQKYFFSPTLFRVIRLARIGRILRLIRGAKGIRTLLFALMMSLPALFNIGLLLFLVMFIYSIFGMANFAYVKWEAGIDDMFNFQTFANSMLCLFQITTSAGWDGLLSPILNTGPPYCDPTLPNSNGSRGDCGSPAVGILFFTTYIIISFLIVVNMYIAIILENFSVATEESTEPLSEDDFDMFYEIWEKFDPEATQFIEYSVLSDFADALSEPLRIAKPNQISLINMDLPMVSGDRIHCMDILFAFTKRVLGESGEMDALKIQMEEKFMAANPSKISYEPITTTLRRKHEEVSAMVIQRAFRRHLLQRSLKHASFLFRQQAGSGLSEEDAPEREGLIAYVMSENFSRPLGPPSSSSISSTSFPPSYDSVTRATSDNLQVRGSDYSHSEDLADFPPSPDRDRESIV
Method in brief: as §1

[9] = target: hERG (Homo sapiens, UniProt Q12809); test: in vitro; settings: 100% = no change, <100% = inhibition
Method in brief: as §1

[10] = target: T7, Kir2.1 (Homo sapiens, UniProt P63252); test: Ion channel panel (IonWorks Barracuda): Kir2.1; format: cell-based; settings: 100% = no change, <100% = inhibition
T7 construct: host or cells: HEK293 or CHO
Method in brief: as §1

[11] = target: T8, Kv1.1 (Homo sapiens, UniProt Q09470); test: cell-based; format: cell-based; settings: 100% = no change, <100% = inhibition
T8 construct: host or cells: HEK293 or CHO
T8 sequence (Q09470 whole entry): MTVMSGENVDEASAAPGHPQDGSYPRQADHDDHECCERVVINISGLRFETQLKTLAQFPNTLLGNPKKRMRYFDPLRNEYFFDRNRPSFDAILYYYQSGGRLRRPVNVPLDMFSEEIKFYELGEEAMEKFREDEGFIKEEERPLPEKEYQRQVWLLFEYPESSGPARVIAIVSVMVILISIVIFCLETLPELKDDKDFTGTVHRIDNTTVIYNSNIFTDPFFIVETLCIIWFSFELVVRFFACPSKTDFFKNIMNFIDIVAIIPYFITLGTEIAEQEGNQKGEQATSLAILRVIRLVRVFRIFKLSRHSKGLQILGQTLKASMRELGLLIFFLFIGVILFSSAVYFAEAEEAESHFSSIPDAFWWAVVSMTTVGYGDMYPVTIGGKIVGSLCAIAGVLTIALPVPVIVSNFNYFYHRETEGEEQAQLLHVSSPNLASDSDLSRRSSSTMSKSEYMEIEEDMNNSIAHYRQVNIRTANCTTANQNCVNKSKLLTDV
Method in brief: as §1

[12] = target: T9, Kv1.2 (Homo sapiens, UniProt P16389); test: cell-based; format: cell-based; settings: 100% = no change, <100% = inhibition
T9 construct: host or cells: HEK293 or CHO
Method in brief: as §1

[13] = target: T10, Kv1.3 (Homo sapiens, UniProt P22001); test: cell-based; format: cell-based; settings: 100% = no change, <100% = inhibition
T10 construct: host or cells: HEK293 or CHO
T10 sequence (P22001 whole entry): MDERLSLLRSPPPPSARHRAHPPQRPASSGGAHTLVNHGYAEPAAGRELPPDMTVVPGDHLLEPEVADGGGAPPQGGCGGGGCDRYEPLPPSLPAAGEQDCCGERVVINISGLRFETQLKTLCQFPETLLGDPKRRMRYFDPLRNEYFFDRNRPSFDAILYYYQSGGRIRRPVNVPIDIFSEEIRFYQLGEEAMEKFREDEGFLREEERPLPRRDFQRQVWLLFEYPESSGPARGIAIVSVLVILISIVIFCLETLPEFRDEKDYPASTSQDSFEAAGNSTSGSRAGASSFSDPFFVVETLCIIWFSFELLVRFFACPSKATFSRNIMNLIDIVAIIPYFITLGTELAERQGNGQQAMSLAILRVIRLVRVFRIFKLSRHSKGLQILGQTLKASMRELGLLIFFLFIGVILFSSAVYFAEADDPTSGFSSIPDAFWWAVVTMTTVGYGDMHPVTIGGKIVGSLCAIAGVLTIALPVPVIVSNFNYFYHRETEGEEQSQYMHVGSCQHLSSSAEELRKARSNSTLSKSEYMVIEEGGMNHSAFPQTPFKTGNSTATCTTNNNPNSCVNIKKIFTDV
Method in brief: as §1

[14] = target: T11, Nav1.7 (Homo sapiens, UniProt Q15858); test: cell-based; format: cell-based; settings: 100% = no change; for Activity of Nav1.7 with peptide, expressed as a percentage of the reference compound: peptide at 0.2 μM; for Activity of Nav1.7 with peptide (percentage of the reference compound): peptide at 20 μM
T11 construct: host or cells: HEK293 or CHO
T11 sequence (Q15858 whole entry): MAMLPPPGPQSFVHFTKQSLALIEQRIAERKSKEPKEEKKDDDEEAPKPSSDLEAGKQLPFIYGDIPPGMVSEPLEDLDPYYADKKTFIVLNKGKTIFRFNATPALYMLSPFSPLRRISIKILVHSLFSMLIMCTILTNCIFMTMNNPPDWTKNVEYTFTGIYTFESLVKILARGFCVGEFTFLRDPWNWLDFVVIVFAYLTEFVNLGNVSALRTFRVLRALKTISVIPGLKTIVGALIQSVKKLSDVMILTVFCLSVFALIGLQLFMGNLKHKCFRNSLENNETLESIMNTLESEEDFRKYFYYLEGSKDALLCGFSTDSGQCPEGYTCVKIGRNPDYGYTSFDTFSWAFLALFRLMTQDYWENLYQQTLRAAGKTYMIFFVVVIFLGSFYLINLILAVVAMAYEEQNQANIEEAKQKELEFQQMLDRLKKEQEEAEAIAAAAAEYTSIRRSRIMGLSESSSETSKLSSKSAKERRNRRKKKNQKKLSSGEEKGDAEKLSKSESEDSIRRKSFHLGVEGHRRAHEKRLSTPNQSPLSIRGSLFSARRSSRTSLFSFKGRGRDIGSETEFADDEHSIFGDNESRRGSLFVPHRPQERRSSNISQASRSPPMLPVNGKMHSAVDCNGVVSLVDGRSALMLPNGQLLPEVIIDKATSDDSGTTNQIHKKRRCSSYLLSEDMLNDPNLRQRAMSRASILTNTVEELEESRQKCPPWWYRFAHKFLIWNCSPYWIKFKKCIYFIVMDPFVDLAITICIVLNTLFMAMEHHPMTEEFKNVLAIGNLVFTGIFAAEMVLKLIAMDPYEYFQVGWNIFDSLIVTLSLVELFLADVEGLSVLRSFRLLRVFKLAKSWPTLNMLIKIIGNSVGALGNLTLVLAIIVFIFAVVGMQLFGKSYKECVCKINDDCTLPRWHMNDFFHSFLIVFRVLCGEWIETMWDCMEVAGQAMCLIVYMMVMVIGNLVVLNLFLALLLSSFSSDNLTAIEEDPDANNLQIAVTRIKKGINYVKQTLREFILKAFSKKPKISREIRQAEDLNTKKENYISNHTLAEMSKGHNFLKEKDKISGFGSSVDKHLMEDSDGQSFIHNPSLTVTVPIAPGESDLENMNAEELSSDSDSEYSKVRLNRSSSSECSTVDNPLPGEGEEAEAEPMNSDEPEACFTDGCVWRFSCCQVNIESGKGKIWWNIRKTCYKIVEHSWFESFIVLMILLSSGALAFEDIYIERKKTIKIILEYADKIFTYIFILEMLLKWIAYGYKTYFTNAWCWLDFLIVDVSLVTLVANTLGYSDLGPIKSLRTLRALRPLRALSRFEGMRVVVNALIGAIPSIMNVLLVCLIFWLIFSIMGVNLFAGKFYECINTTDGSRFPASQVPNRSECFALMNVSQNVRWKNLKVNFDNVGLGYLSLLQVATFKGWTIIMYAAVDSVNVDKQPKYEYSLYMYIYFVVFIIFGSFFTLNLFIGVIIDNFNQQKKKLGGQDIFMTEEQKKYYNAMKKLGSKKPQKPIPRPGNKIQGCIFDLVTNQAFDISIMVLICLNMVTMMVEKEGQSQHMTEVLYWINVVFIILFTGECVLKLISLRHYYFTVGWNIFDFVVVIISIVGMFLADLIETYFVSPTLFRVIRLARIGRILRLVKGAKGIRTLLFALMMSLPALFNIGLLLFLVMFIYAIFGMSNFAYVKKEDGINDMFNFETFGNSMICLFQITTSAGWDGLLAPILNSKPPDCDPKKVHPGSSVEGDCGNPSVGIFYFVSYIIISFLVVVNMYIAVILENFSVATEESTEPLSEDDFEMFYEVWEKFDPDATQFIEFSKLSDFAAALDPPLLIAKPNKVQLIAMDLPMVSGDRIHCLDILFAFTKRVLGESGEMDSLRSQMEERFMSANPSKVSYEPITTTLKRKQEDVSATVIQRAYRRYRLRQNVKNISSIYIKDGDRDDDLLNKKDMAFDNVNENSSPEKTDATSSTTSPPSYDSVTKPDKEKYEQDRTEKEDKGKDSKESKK

[15] = target: T12, NR2A (Homo sapiens, UniProt Q12879); test: Ion channel panel (IonWorks Barracuda): NR2A; format: cell-based; settings: 100% = no change, <100% = inhibition
T12 construct: host or cells: HEK293 or CHO
Method in brief: as §1

[16] = target: T13, NR2B (Homo sapiens, UniProt Q13224); test: Ion channel panel (IonWorks Barracuda): NR2B; format: cell-based; settings: 100% = no change, <100% = inhibition
T13 construct: host or cells: HEK293 or CHO
Method in brief: as §1

[17] = target: T14, TRPA1 (Homo sapiens, UniProt O75762); test: Ion channel panel (IonWorks Barracuda): TRPA1; format: cell-based; settings: 100% = no change, <100% = inhibition
T14 construct: host or cells: HEK293 or CHO
Method in brief: as §1

[18] = target: T15, TRPV1 (Homo sapiens, UniProt Q8NER1); test: Ion channel panel (IonWorks Barracuda): TRPV1; format: cell-based; settings: 100% = no change, <100% = inhibition
T15 construct: host or cells: HEK293 or CHO
Method in brief: as §1

[19] = first of two Nav1.5 columns (probably TP1)
[20] = second of two Nav1.5 columns (probably TP2)
[21] = first of two Nav1.7 columns (probably TP1)
[22] = second of two Nav1.7 columns (probably TP2)

15 (GSAVCNLKRCQLSCRSLGLLGKCIGDKCECVKHG) [compound 15]
Activity of 5HT3a with peptide (percentage of the reference compound) [1]: 74%
Activity of 5HT3a with peptide, expressed as a percentage of the reference compound [1]: 86%
Activity of a3b4 with peptide, expressed as a percentage of the reference compound ([2]; peptide at 0.2 μM): 91%
Activity of a3b4 with peptide (percentage of the reference compound) ([2]; peptide at 20 μM): 86%
Activity of a4b2 with peptide, expressed as a percentage of the reference compound ([3]; peptide at 0.2 μM): 71%
Activity of a4b2 with peptide (percentage of the reference compound) ([3]; peptide at 20 μM): 95%
Activity of Cav2.1 with peptide, expressed as a percentage of the reference compound ([4]; peptide at 0.2 μM): 106%
Activity of Cav2.1 with peptide (percentage of the reference compound) ([4]; peptide at 20 μM): 86%
Activity of Cav2.2 with peptide, expressed as a percentage of the reference compound ([5]; peptide at 0.2 μM): 105%
Activity of Cav2.2 with peptide (percentage of the reference compound) ([5]; peptide at 20 μM): 106%
Activity of Kv2.1 with peptide, expressed as a percentage of the reference compound ([6]; peptide at 0.2 μM): 91%
Activity of Kv2.1 with peptide (percentage of the reference compound) ([6]; peptide at 20 μM): 88%
Activity of GABA with peptide, expressed as a percentage of the reference compound ([7]; peptide at 0.2 μM): 122%
Activity of GABA with peptide (percentage of the reference compound) ([7]; peptide at 20 μM): 97%
Activity of Nav1.5 with peptide, expressed as a percentage of the reference compound [8, 19]: 90%
Activity of Nav1.5 with peptide, expressed as a percentage of the reference compound [8, 20]: 91%
Activity of Nav1.5 with peptide (percentage of the reference compound) [8, 19]: 78%
Activity of Nav1.5 with peptide (percentage of the reference compound) [8, 20]: 79%
Activity of hERG with peptide, expressed as a percentage of the reference compound ([9]; peptide at 0.2 μM): 79%
Activity of hERG with peptide (percentage of the reference compound) ([9]; peptide at 20 μM): 67%
Activity of Kir2.1 with peptide, expressed as a percentage of the reference compound ([10]; peptide at 0.2 μM): 107%
Activity of Kir2.1 with peptide (percentage of the reference compound) ([10]; peptide at 20 μM): 88%
Activity of Kv1.1 with peptide, expressed as a percentage of the reference compound ([11]; peptide at 0.2 μM): 69%
Activity of Kv1.1 with peptide (percentage of the reference compound) ([11]; peptide at 20 μM): 72%
Activity of Kv1.2 with peptide, expressed as a percentage of the reference compound ([12]; peptide at 0.2 μM): 77%
Activity of Kv1.2 with peptide (percentage of the reference compound) ([12]; peptide at 20 μM): 76%
Activity of Kv1.3 with peptide, expressed as a percentage of the reference compound ([13]; peptide at 0.2 μM): 86%
Activity of Kv1.3 with peptide (percentage of the reference compound) ([13]; peptide at 20 μM): 90%
Activity of Nav1.7 with peptide, expressed as a percentage of the reference compound [14, 21]: 91%
Activity of Nav1.7 with peptide, expressed as a percentage of the reference compound [14, 22]: 97%
Activity of Nav1.7 with peptide (percentage of the reference compound) [14, 21]: 75%
Activity of Nav1.7 with peptide (percentage of the reference compound) [14, 22]: 58%
Activity of NR2A with peptide, expressed as a percentage of the reference compound ([15]; peptide at 0.2 μM): 97%
Activity of NR2A with peptide (percentage of the reference compound) ([15]; peptide at 20 μM): 76%
Activity of NR2B with peptide, expressed as a percentage of the reference compound ([16]; peptide at 0.2 μM): 103%
Activity of NR2B with peptide (percentage of the reference compound) ([16]; peptide at 20 μM): 88%
Activity of TRPA1 with peptide, expressed as a percentage of the reference compound ([17]; peptide at 0.2 μM): 114%
Activity of TRPA1 with peptide (percentage of the reference compound) ([17]; peptide at 20 μM): 76%
Activity of TRPV1 with peptide, expressed as a percentage of the reference compound ([18]; peptide at 0.2 μM): 124%
Activity of TRPV1 with peptide (percentage of the reference compound) ([18]; peptide at 20 μM): 99%
